Laboratory results reported in paper PMC9692976, “Characterization of a Glycolipid Synthase Producing α-Galactosylceramide in Bacteroides fragilis” (International Journal of Molecular Sciences, 2022).

Experiments:
[1] = target: T1, αGalCer_GT (BF9343_3149; αCerGal_GT) (Bacteroides fragilis, UniProt A0A380YRQ3); assay: HPLC with fluorescence detection of αGalCer-NBD, initial rates; type: biochemical; settings: substrate inhibition constant; second site; 1.25 mM UDP-Gal, Cer-NBD solubilized with equimolar BSA, pH 7.5, 37 °C; labelled compound
T1 construct: full length, SUMO fusion at N-terminus and Strep-tag (C-terminal in Results; Methods also says N-terminal Strep-tag), tags kept, codon-optimised gene, E. coli BL21(DE3) Star, StrepTrap purified

[2] = tested on: O=c1ccn([C@@H]2O[C@H](COP(=O)(O)OP(=O)(O)O[C@H]3O[C@H](CO)[C@H](O)[C@H](O)[C@H]3O)[C@@H](O)[C@H]2O)c(=O)[nH]1; assay: purified protein; settings: 25 µM Cer-NBD with equimolar BSA, pH 7.5, 37 °C, fit with substrate inhibition
[3] = tested on: CCCCCCCCCCCCC/C=C/[C@@H](O)[C@H](CO)NC(=O)CCCCCNc1ccc([N+](=O)[O-])c2nonc12; assay: purified protein; settings: 1.25 mM UDP-Gal, Cer-NBD solubilized with equimolar BSA, pH 7.5, 37 °C, fit with substrate inhibition, labelled compound

T1 sequence (A0A380YRQ3 entry or part of it): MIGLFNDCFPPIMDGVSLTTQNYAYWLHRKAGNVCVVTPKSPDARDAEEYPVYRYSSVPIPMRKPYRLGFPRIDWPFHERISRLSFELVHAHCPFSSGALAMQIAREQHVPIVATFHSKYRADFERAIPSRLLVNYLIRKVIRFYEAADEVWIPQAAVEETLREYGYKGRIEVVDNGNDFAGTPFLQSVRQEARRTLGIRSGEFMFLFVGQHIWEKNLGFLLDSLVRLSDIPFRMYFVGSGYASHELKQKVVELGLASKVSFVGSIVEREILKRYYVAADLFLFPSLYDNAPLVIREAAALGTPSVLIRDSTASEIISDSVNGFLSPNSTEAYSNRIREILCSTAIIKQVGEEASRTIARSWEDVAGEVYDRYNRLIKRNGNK

Row | Compound | KI [1] | Km [2] | Km [3]
1 | CCCCCCCCCCCCC/C=C/[C@@H](O)[C@H](CO)NC(=O)CCCCCNc1ccc([N+](=O)[O-])c2nonc12 [Cer-NBD, N-[6-[(7-nitro-2-1,3-benzoxadiazol-4-yl)amino]hexanoyl]-D-erythro-sphin-gosine] | 161 µM | – | –
2 | αGalCer_GT (BF9343_3149; αCerGal_GT) (Bacteroides fragilis NCTC 9343) | – | 218 µM | 4.6 µM
